Consider 24 sequences from the Immune Epitope Database (IEDB).

Some targets named below: HLA-A*02:03; HLA-A*68:02; HLA-A*02:01; HLA-A*02:06; HLA-A*02:02.
Holding throughout (experiment): IEDB peptide-MHC binding, purified MHC/competitive/radioactivity; ≥ and ≤ were set here for values at or beyond the usual limits of such assays
The mark [1] stands for this setting: source organism: Vaccinia virus WR.
[2] abbreviates: source organism: Mammarenavirus machupoense.
Where [3] appears, read: source organism: Mammarenavirus choriomeningitidis.
Where [4] appears, read: source organism: Mammarenavirus whitewaterense.

Consider ALVSDCASTI, for which the IC50 (in general, the concentration that inhibits the measured activity by half) amounted to 52 nM with HLA-A*02:03 (setting [1]); 530 nM with HLA-A*68:02 (setting [1]); 72 nM with HLA-A*02:01 (setting [1]); 240 nM with HLA-A*02:06 (setting [1]); 94 nM with HLA-A*02:02 (setting [1]).

In the case of ALYKGFQFI, the IC50 was determined as 3.3 nM in the assay with HLA-A*02:03 (source organism: SARS-CoV1); 4450 nM in the assay with HLA-A*68:02 (source organism: SARS-CoV1); 5.2 nM with HLA-A*02:01 (source organism: SARS-CoV1); 2 nM with HLA-A*02:06 (source organism: SARS-CoV1); 0.53 nM with HLA-A*02:02 (source organism: SARS-CoV1).

In the case of ALYSPPLISI, the IC50 in the assay with HLA-A*02:03 (setting [1]) worked out at 150 nM; with HLA-A*68:02 (setting [1]), 323 nM; with HLA-A*02:01 (setting [1]), 1130 nM; with HLA-A*02:06 (setting [1]) it was 162 nM; with HLA-A*02:02 (setting [1]), 1.4 nM.

Turning to AMLKSKNINI, the IC50 stood at 223 nM in the assay with HLA-A*02:03 (setting [1]); 4740 nM in the assay with HLA-A*68:02 (setting [1]); 175 nM in the assay with HLA-A*02:01 (setting [1]); 200 nM in the assay with HLA-A*02:06 (setting [1]); 1650 nM with HLA-A*02:02 (setting [1]).

With AMPGVLSYV, the IC50 with HLA-A*02:03 (setting [2]) was found to be 7.3 nM; with HLA-A*68:02 (setting [2]), 834 nM; with HLA-A*02:01 (setting [2]) it was 8.4 nM; with HLA-A*02:06 (setting [2]) it was 22 nM; in the assay with HLA-A*02:02 (setting [2]) it was 4.2 nM.

Take ATFRDMLLNV: the IC50 with HLA-A*02:03 (setting [1]) worked out at 0.4 nM; in the assay with HLA-A*68:02 (setting [1]), 511 nM; with HLA-A*02:01 (setting [1]) it was 8.3 nM; in the assay with HLA-A*02:06 (setting [1]), 3 nM; in the assay with HLA-A*02:02 (setting [1]), 7.1 nM.

For ATICLKNEGV, the IC50 with HLA-A*02:03 (setting [1]) was determined as 71 nM; with HLA-A*68:02 (setting [1]), 87 nM; with HLA-A*02:01 (setting [1]), 239 nM; with HLA-A*02:06 (setting [1]), 42 nM; with HLA-A*02:02 (setting [1]), 436 nM.

In the case of ATLNTLITLI, the IC50 came to 28 nM with HLA-A*02:03 (setting [1]); 1050 nM with HLA-A*68:02 (setting [1]); 543 nM with HLA-A*02:01 (setting [1]); 198 nM with HLA-A*02:06 (setting [1]); 32 nM in the assay with HLA-A*02:02 (setting [1]).

Regarding AVANCVRNL, the IC50 with HLA-A*02:03 (setting [1]) was determined as 114 nM; with HLA-A*68:02 (setting [1]), 1350 nM; with HLA-A*02:01 (setting [1]) it was 1200 nM; with HLA-A*02:06 (setting [1]) it was 1380 nM; in the assay with HLA-A*02:02 (setting [1]), 66 nM.

For AVIPFDDIV, the IC50 with HLA-A*02:03 (setting [1]) amounted to 241 nM; in the assay with HLA-A*68:02 (setting [1]), 903 nM; with HLA-A*02:01 (setting [1]) it was 915 nM; with HLA-A*02:06 (setting [1]), 42 nM; with HLA-A*02:02 (setting [1]) it was 313 nM.

As to AVITETIPI, the IC50 with HLA-A*02:03 (setting [1]) was found to be 43 nM; with HLA-A*68:02 (setting [1]), 60 nM; in the assay with HLA-A*02:01 (setting [1]), 467 nM; in the assay with HLA-A*02:06 (setting [1]), 6.5 nM; in the assay with HLA-A*02:02 (setting [1]) it was 324 nM.

With AVLSEYETMV, the IC50 with HLA-A*02:03 (setting [1]) came out at 1.5 nM; with HLA-A*68:02 (setting [1]), 1770 nM; with HLA-A*02:01 (setting [1]), 9.7 nM; in the assay with HLA-A*02:06 (setting [1]) it was 24 nM; with HLA-A*02:02 (setting [1]), 0.76 nM.

Regarding AVYNFATCGI, the IC50 with HLA-A*02:03 (setting [3]) amounted to 7.3 nM; in the assay with HLA-A*68:02 (setting [3]) it was 13 nM; in the assay with HLA-A*02:01 (setting [3]), 137 nM; with HLA-A*02:06 (setting [3]), 25 nM; in the assay with HLA-A*02:02 (setting [3]), 25 nM.

With CIVAAVIIMA, the IC50 came out at 619 nM in the assay with HLA-A*02:03 (setting [1]); 1.3 nM with HLA-A*68:02 (setting [1]); 1900 nM with HLA-A*02:01 (setting [1]); 733 nM with HLA-A*02:06 (setting [1]); 1130 nM in the assay with HLA-A*02:02 (setting [1]).

Take CIVQSVLRDI: the IC50 in the assay with HLA-A*02:03 (setting [1]) stood at 158 nM; with HLA-A*68:02 (setting [1]), 3480 nM; with HLA-A*02:01 (setting [1]) it was 1180 nM; with HLA-A*02:06 (setting [1]), 849 nM; with HLA-A*02:02 (setting [1]), 218 nM.

In the case of CLDAGINYV, the IC50 amounted to 6.4 nM with HLA-A*02:03 (source organism: SARS-CoV1); 79 nM with HLA-A*68:02 (source organism: SARS-CoV1); 0.91 nM in the assay with HLA-A*02:01 (source organism: SARS-CoV1); 1.6 nM with HLA-A*02:06 (source organism: SARS-CoV1); 0.57 nM with HLA-A*02:02 (source organism: SARS-CoV1).

For the sequence CNYTKFWYV, the IC50 with HLA-A*02:03 (setting [4]) was found to be 794 nM; with HLA-A*68:02 (setting [4]) it was 247 nM; in the assay with HLA-A*02:01 (setting [4]), 725 nM; with HLA-A*02:06 (setting [4]), 35 nM; with HLA-A*02:02 (setting [4]), 1940 nM.

For the sequence CTINVNSLA, the concentration for half-maximal inhibition (IC50) was determined as 1610 nM with HLA-A*02:03 (setting [1]); 13 nM with HLA-A*68:02 (setting [1]); 1040 nM in the assay with HLA-A*02:01 (setting [1]); 248 nM with HLA-A*02:06 (setting [1]); 1040 nM in the assay with HLA-A*02:02 (setting [1]).

As for CTINVNSLAL, the IC50 with HLA-A*02:03 (setting [1]) is 1040 nM; with HLA-A*68:02 (setting [1]), 517 nM; with HLA-A*02:01 (setting [1]), 1040 nM; in the assay with HLA-A*02:06 (setting [1]), 216 nM; in the assay with HLA-A*02:02 (setting [1]), 494 nM.

With CTMERTNDL, the 50% inhibitory concentration (IC50) in the assay with HLA-A*02:03 (setting [1]) worked out at 25 nM; with HLA-A*68:02 (setting [1]), 103 nM; with HLA-A*02:01 (setting [1]) it was 345 nM; with HLA-A*02:06 (setting [1]), 96 nM; with HLA-A*02:02 (setting [1]) it was 36 nM.

Turning to CVDHPFIYV, the IC50 with HLA-A*02:03 (setting [1]) worked out at 1410 nM; with HLA-A*68:02 (setting [1]) it was 5.1 nM; with HLA-A*02:01 (setting [1]), 546 nM; with HLA-A*02:06 (setting [1]), 148 nM; with HLA-A*02:02 (setting [1]), 300 nM.

As for CVMYASALV, the IC50 with HLA-A*02:03 (source organism: SARS-CoV1) worked out at 2.9 nM; with HLA-A*68:02 (source organism: SARS-CoV1) it was 0.89 nM; with HLA-A*02:01 (source organism: SARS-CoV1) it was 9.3 nM; in the assay with HLA-A*02:06 (source organism: SARS-CoV1) it was 7.4 nM; with HLA-A*02:02 (source organism: SARS-CoV1), 4.5 nM.

On to CVSNLDISSV, for which the IC50 with HLA-A*02:03 (setting [1]) is 2.3 nM; with HLA-A*68:02 (setting [1]), 1030 nM; in the assay with HLA-A*02:01 (setting [1]), 1480 nM; with HLA-A*02:06 (setting [1]), 48 nM; with HLA-A*02:02 (setting [1]) it was 52 nM.

In the case of DIISSKQYPA, the IC50 amounted to 2430 nM in the assay with HLA-A*02:03 (setting [1]); 220 nM in the assay with HLA-A*68:02 (setting [1]); 2890 nM with HLA-A*02:01 (setting [1]); 3100 nM in the assay with HLA-A*02:06 (setting [1]); 552 nM with HLA-A*02:02 (setting [1]).
